Source: patent US20260166158A1, “HSP90-BINDING CONJUGATES AND FORMULATIONS THEREOF” (Fusion Pharmaceuticals Inc., priority 2019, published 2026)

How the values were obtained:
NCI-H460 tumor model = test: Distribution of radioactive (177Lu) versus non-radioactive (175Lu) analog of CMP51; format: in vivo; conditions: radioactive analog comprising Lu177
Procedure: In another study with the NCI-H460 tumor model, the distribution of the radioactive (hot) analog of CMP51 (177Lu) and the distribution of the non-radioactive (cold) analog of CMP51 (175Lu) at 24 hours and 72 hours were tested and compared.

[1] = system: NCI-H460 tumor-bearing mice (lung cancer); test: Biodistribution: lutetium accumulation in tumor, plasma and healthy tissues by ICP-MS; format: in vivo; conditions: 24 h
Procedure, shortened: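 NCI-H460 tumor-bearing mice received 0.5 mg/kg lutetium conjugates; at set time points tumor, liver, kidneys and plasma were collected. Lutetium content measured by ICP-MS and expressed as % ID/g, with 24 h tumor/kidney, tumor/liver and tumor/plasma ratios.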

`CCNC(=O)c1nnc(-c2cc(C(C)C)c(O)cc2O)n1-c1ccc(CN2CCN(C(=O)CCNC(=O)[C@@H](CCC(=O)O)NC(=O)[C@@H](CCC(=O)O)NC(=O)[C@@H](CCC(=O)O)NC(=O)COCCOCCNC(=O)CCCCn3cc(CN(CCCNC(=O)CC[C@H](C(=O)O)N4CCN5CCN6CC(=O)[O][Lu]([O]C(=O)C5)[C]5(C6)OC(=O)CN5CC4)C(=O)CCCNC(=O)CCCc4ccc(I)cc4)nn3)CC2)cc1` (some centres unmarked) [CMP51] was tested, and the “tumor exposure selectivity (FIG. 1 legend)” value (NCI-H460 tumor model) was “selective tumor exposure with the exception of kidney”, the “T/K (Tumor/Kidney ratio)” value [1] was 0.7 and the “T/L (Tumor/Liver ratio)” value [1] was 5.6. For the same compound, the “T/P (Tumor/Plasma ratio)” value [1] was 2.5, the “Kidney uptake, % ID/g 24 h” value ([1]; second table, kidney) was 10.37 % ID/g and the “Liver uptake, % ID/g 24 h” value ([1]; second table, liver) was 1.35 % ID/g. The “Plasma, % ID/g 24 h” value ([1]; second table, plasma) was 3.01 % ID/g and the “Tumor uptake, % ID/g, 24 h” value ([1]; second table, tumor) was 7.54 % ID/g.
